T1: FDC1 (Saccharomyces cerevisiae, UniProt Q03034)
T1 construct: N-terminal 6xHis leader of vector pDEST17 (own knowledge of the vector); made in house; host or cells: E. coli BL21 (DE3)
T1 sequence (Q03034 1-503): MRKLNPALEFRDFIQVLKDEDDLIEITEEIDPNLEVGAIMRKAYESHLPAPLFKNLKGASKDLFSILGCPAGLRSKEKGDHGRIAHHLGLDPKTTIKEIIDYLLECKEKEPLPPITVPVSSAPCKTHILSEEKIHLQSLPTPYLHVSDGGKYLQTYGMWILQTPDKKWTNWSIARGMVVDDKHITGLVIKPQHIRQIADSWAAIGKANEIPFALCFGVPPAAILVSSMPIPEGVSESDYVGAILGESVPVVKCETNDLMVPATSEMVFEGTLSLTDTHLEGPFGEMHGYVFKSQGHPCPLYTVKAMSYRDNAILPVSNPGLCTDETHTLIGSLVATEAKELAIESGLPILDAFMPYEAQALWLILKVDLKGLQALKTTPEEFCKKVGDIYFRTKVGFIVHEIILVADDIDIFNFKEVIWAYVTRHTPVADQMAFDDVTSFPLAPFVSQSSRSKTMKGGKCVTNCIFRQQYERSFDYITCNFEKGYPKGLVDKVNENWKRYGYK


Test system: styrene production
Experiment: Styrene production by FDC1 mutants from tCA (colorimetric screening, confirmed by HPLC)
Assay type: cell-based
Details: E. coli cells, tCA 1 g/L, 30° C. for 4 hours
Description: Saturation mutagenesis allows the change of one amino acid to 19 other alternative amino acid residues. […] The codon NNK has 32-fold degeneracy and encodes all 20 amino acids without rare codons. The QuikChange PCR products were examined by agarose gel electrophoresis and then 15 μl of PCR products were digested with 1 μl Dpnl (New England Biolabs) at 37° C. for 4 hours to remove the template plasmid. Aliquots of (2 μl) digestive products were transformed into BL21-Gold (DE3) competent cells (STRATAgene, CA) and inoculated on Luria-Bertani (LB) agar plates containing kanamycin. The quality of the library by DNA sequencing was confirmed. The library covers 90% of mutagenesis (17 mutants out of 19). To cover 100% (19 out of 19 mutant), we screened 150 mutants for each site.
The transformants (Example II.2) were inoculated in 96-well plates (NUNC, Roskilde, Denmark) containing 100 μl LB broth per well and incubated at 37° C., overnight. The cultures were then mixed with equal amount of 50% glycerol and stored at −80° C. as the master plate. An aliquot of 10 μl culture was inoculated in 2 ml deep-well plates (USA scientific) with 1 ml TB broth per well and incubated at 37° C. until the OD600 reached 1.0. The cultures were then induced by 0.2 mM IPTG and incubated at 18° C. for 20 hours with shaking at 250 rpm.
Cells were harvested and suspended with 0.25 ml PBS buffer at pH 7.0 and the substrate (tCA) was added at a final concentration of 1 g/L. The culture was incubated at 30° C. for 4 hours and the volatile product styrene was collected by using 96 well STRATA-X® reversed phase plate containing 10 mg polymer based resin (Phenomenex) on top of the culture plate (FIG. 19). To avoid styrene vapor diffusion, 96-square well silicone sealing mats with pre-slit were used between 96-well culture plate and 96 well STRATA-X® reversed phase plate. The product was collected by 200 μl propanol for each well and the amount of product was measured by colorimetric method.
Various chemicals were tested as an indicator for styrene detection, including NBP (4-nitrobenzyl-pyridine) as a preferred indicator. Styrene was mixed with cytochrome P450 BM-3 in 50 mM phosphate buffer pH 8.0. The styrene oxidation reaction was started by adding 0.2 mM NADPH, and the reaction mixture was incubated at room temperature for 5 minutes with shaking. The NBP solution was added to the mixture and incubated at room temperature for further 5 minutes with shaking which gives white precipitate. The tube or plate containing reaction mixtures were heated at 70° C. for 30 minutes and chilled on ice for 5 minutes. After adding Dimethylformamide (150 μl) and 25 μl of 1M K2CO3, the reaction mixture gave blue color that can be measured spectrophotometrically at 600 nm immediately. The […] of NBP reacts with the oxirane ring of styrene oxide to yield a blue chromophore a blue color that can be monitored spectrophotometrically at 600 nm.
The mutants showing higher activity were confirmed by HPLC using an ACQUITY UPLC BEH C18 column (1.7-μm, 2.1×50-mm, Waters, USA). The samples were resolved in 30% acetonitrile (A) with an increasing concentration gradient of acetonitrile (B) for 1 min, 95%; then to 1 min, 30%; at a flow rate of 1 ml/min. UV absorption was monitored at 254-, 280-, and 310-nm. The changed amino acid residues in the mutants showing the higher activity were confirmed by DNA sequence.

| Molecule | amount of styrene compared to that of wild type (in words) | styrene produced compared to wild type |
| --- | --- | --- |
| K190C (protein, listed as Saccharomyces cerevisiae) MRKLNPALEFRDFIQVLKDEDDLIEITEEIDPNLEVGAIMRKAYESHLPAPLFKNLKGASKDLFSILGCPAGLRSKEKGDHGRIAHHLGLDPKTTIKEIIDYLLECKEKEPLPPITVPVSSAPCKTHILSEEKIHLQSLPTPYLHVSDGGKYLQTYGMWILQTPDKKWTNWSIARGMVVDDKHITGLVICPQHIRQIADSWAAIGKANEIPFALCFGVPPAAILVSSMPIPEGVSESDYVGAILGESVPVVKCETNDLMVPATSEMVFEGTLSLTDTHLEGPFGEMHGYVFKSQGHPCPLYTVKAMSYRDNAILPVSNPGLCTDETHTLIGSLVATEAKELAIESGLPILDAFMPYEAQALWLILKVDLKGLQALKTTPEEFCKKVGDIYFRTKVGFIVHEIILVADDIDIFNFKEVIWAYVTRHTPVADQMAFDDVTSFPLAPFVSQSSRSKTMKGGKCVTNCIFRQQYERSFDYITCNFEKGYPKGLVDKVNENWKRYGYK | significantly higher amount of styrene | 3 times |
| K190D (protein, listed as Saccharomyces cerevisiae) MRKLNPALEFRDFIQVLKDEDDLIEITEEIDPNLEVGAIMRKAYESHLPAPLFKNLKGASKDLFSILGCPAGLRSKEKGDHGRIAHHLGLDPKTTIKEIIDYLLECKEKEPLPPITVPVSSAPCKTHILSEEKIHLQSLPTPYLHVSDGGKYLQTYGMWILQTPDKKWTNWSIARGMVVDDKHITGLVIDPQHIRQIADSWAAIGKANEIPFALCFGVPPAAILVSSMPIPEGVSESDYVGAILGESVPVVKCETNDLMVPATSEMVFEGTLSLTDTHLEGPFGEMHGYVFKSQGHPCPLYTVKAMSYRDNAILPVSNPGLCTDETHTLIGSLVATEAKELAIESGLPILDAFMPYEAQALWLILKVDLKGLQALKTTPEEFCKKVGDIYFRTKVGFIVHEIILVADDIDIFNFKEVIWAYVTRHTPVADQMAFDDVTSFPLAPFVSQSSRSKTMKGGKCVTNCIFRQQYERSFDYITCNFEKGYPKGLVDKVNENWKRYGYK | significantly higher amount of styrene |  |
| K190V (protein, listed as Saccharomyces cerevisiae) MRKLNPALEFRDFIQVLKDEDDLIEITEEIDPNLEVGAIMRKAYESHLPAPLFKNLKGASKDLFSILGCPAGLRSKEKGDHGRIAHHLGLDPKTTIKEIIDYLLECKEKEPLPPITVPVSSAPCKTHILSEEKIHLQSLPTPYLHVSDGGKYLQTYGMWILQTPDKKWTNWSIARGMVVDDKHITGLVIVPQHIRQIADSWAAIGKANEIPFALCFGVPPAAILVSSMPIPEGVSESDYVGAILGESVPVVKCETNDLMVPATSEMVFEGTLSLTDTHLEGPFGEMHGYVFKSQGHPCPLYTVKAMSYRDNAILPVSNPGLCTDETHTLIGSLVATEAKELAIESGLPILDAFMPYEAQALWLILKVDLKGLQALKTTPEEFCKKVGDIYFRTKVGFIVHEIILVADDIDIFNFKEVIWAYVTRHTPVADQMAFDDVTSFPLAPFVSQSSRSKTMKGGKCVTNCIFRQQYERSFDYITCNFEKGYPKGLVDKVNENWKRYGYK | significantly higher amount of styrene | 3 times |
| K190N (protein, listed as Saccharomyces cerevisiae) MRKLNPALEFRDFIQVLKDEDDLIEITEEIDPNLEVGAIMRKAYESHLPAPLFKNLKGASKDLFSILGCPAGLRSKEKGDHGRIAHHLGLDPKTTIKEIIDYLLECKEKEPLPPITVPVSSAPCKTHILSEEKIHLQSLPTPYLHVSDGGKYLQTYGMWILQTPDKKWTNWSIARGMVVDDKHITGLVINPQHIRQIADSWAAIGKANEIPFALCFGVPPAAILVSSMPIPEGVSESDYVGAILGESVPVVKCETNDLMVPATSEMVFEGTLSLTDTHLEGPFGEMHGYVFKSQGHPCPLYTVKAMSYRDNAILPVSNPGLCTDETHTLIGSLVATEAKELAIESGLPILDAFMPYEAQALWLILKVDLKGLQALKTTPEEFCKKVGDIYFRTKVGFIVHEIILVADDIDIFNFKEVIWAYVTRHTPVADQMAFDDVTSFPLAPFVSQSSRSKTMKGGKCVTNCIFRQQYERSFDYITCNFEKGYPKGLVDKVNENWKRYGYK | significantly higher amount of styrene |  |
| K190L (protein, listed as Saccharomyces cerevisiae) MRKLNPALEFRDFIQVLKDEDDLIEITEEIDPNLEVGAIMRKAYESHLPAPLFKNLKGASKDLFSILGCPAGLRSKEKGDHGRIAHHLGLDPKTTIKEIIDYLLECKEKEPLPPITVPVSSAPCKTHILSEEKIHLQSLPTPYLHVSDGGKYLQTYGMWILQTPDKKWTNWSIARGMVVDDKHITGLVILPQHIRQIADSWAAIGKANEIPFALCFGVPPAAILVSSMPIPEGVSESDYVGAILGESVPVVKCETNDLMVPATSEMVFEGTLSLTDTHLEGPFGEMHGYVFKSQGHPCPLYTVKAMSYRDNAILPVSNPGLCTDETHTLIGSLVATEAKELAIESGLPILDAFMPYEAQALWLILKVDLKGLQALKTTPEEFCKKVGDIYFRTKVGFIVHEIILVADDIDIFNFKEVIWAYVTRHTPVADQMAFDDVTSFPLAPFVSQSSRSKTMKGGKCVTNCIFRQQYERSFDYITCNFEKGYPKGLVDKVNENWKRYGYK | significantly higher amount of styrene |  |
| K190H (protein, listed as Saccharomyces cerevisiae) MRKLNPALEFRDFIQVLKDEDDLIEITEEIDPNLEVGAIMRKAYESHLPAPLFKNLKGASKDLFSILGCPAGLRSKEKGDHGRIAHHLGLDPKTTIKEIIDYLLECKEKEPLPPITVPVSSAPCKTHILSEEKIHLQSLPTPYLHVSDGGKYLQTYGMWILQTPDKKWTNWSIARGMVVDDKHITGLVIHPQHIRQIADSWAAIGKANEIPFALCFGVPPAAILVSSMPIPEGVSESDYVGAILGESVPVVKCETNDLMVPATSEMVFEGTLSLTDTHLEGPFGEMHGYVFKSQGHPCPLYTVKAMSYRDNAILPVSNPGLCTDETHTLIGSLVATEAKELAIESGLPILDAFMPYEAQALWLILKVDLKGLQALKTTPEEFCKKVGDIYFRTKVGFIVHEIILVADDIDIFNFKEVIWAYVTRHTPVADQMAFDDVTSFPLAPFVSQSSRSKTMKGGKCVTNCIFRQQYERSFDYITCNFEKGYPKGLVDKVNENWKRYGYK | significantly higher amount of styrene |  |
| R1751 (protein, listed as Saccharomyces cerevisiae) MRKLNPALEFRDFIQVLKDEDDLIEITEEIDPNLEVGAIMRKAYESHLPAPLFKNLKGASKDLFSILGCPAGLRSKEKGDHGRIAHHLGLDPKTTIKEIIDYLLECKEKEPLPPITVPVSSAPCKTHILSEEKIHLQSLPTPYLHVSDGGKYLQTYGMWILQTPDKKWTNWSIAIGMVVDDKHITGLVIKPQHIRQIADSWAAIGKANEIPFALCFGVPPAAILVSSMPIPEGVSESDYVGAILGESVPVVKCETNDLMVPATSEMVFEGTLSLTDTHLEGPFGEMHGYVFKSQGHPCPLYTVKAMSYRDNAILPVSNPGLCTDETHTLIGSLVATEAKELAIESGLPILDAFMPYEAQALWLILKVDLKGLQALKTTPEEFCKKVGDIYFRTKVGFIVHEIILVADDIDIFNFKEVIWAYVTRHTPVADQMAFDDVTSFPLAPFVSQSSRSKTMKGGKCVTNCIFRQQYERSFDYITCNFEKGYPKGLVDKVNENWKRYGYK | significantly higher amount of styrene | 1.5 times |

Molecular target: T1, FDC1
Experiment: Substrate specificity of FDC1
Assay type: biochemical
Details: 0.2 mM substrate, 0.5 mg purified FDC1, 5 minutes at 30° C., pH 6.5
Description: The reaction mixtures were then incubated for 5 minutes at 30° C. After the reaction 1 mL of propanol was added to the reaction mixtures to solubilize styrene. The experimental negative control used the same conditions except the reaction mixture contained no substrate.

| Molecule | activity compared with that of tCA (relative activity) |
| --- | --- |
| COc1ccc(OC)c(C=CC(=O)O)c1 [2,5-dimethoxycinnamic acid] | did not show any activity |
